Reference: article PMC7755903 (Nature Communications, 2020)
Residue numbers refer to the chain shown, from its start. Numbers in names are those of the source.

B1: E104.v2 IgG1 hinge variant G1-TH (antibody, V domains shown)
VH: EVQLVESGPGLVKPSETLSLTCTVSRFSLIGYAITWIRQPPGKGLEWIGGISSAATTFYSSWAKSRVTISRDTSKNQVSLKLSSVTAADTAVYYCARDPRGYGAALDRLDLWGQGTLVTVSS
VL: DIQMTQSPSSLSASVGDRVTITCQSIKSVYNNRLGWYQQKPGKAPKLLIYETSILTSGVPSRFSGSGSGTDFTLTISSLQPEDFATYYCAGGFDRSGDTTFGQGTKVEIK
B2: E104.v2 IgG1 hinge variant G1-KTH (antibody, V domains shown)
VH: B1 VH
VL: B1 VL
B3: E104.v2 IgG1 hinge variant G1.G5 (antibody, V domains shown)
VH: B1 VH
VL: B1 VL
B4: humanized E104.v1 IgG1 (antibody, V domains shown)
VH: B1 VH with R71V, V78F
VL: B1 VL
B5: E104.v2 IgG1 hinge variant G1-H (antibody, V domains shown)
VH: B1 VH
VL: B1 VL
B6: humanized E104.v1 IgG1 (antibody, V domains shown)
VH: B1 VH with R71V, V78F
VL: B1 VL
notes: variable domain of the heavy chain as in m6 (PDB 6VVU, Fab heavy chain); human IgG1 heavy chain constant region; as the light chain of m6 (PDB 6VVU, Fab light chain); IgG1; also called IgG1.v1; source: 293 cells, transient transfection, purified (MabSelect SuRe, SEC); copies: 2 + 2
B7: E104.v2 IgG1 hinge variant G1-TH (antibody, V domains shown)
VH: B1 VH
VL: B1 VL
notes: variable domain of the heavy chain as in m6 (PDB 6VVU, Fab heavy chain) with V71R and F78V (Kabat numbering); human IgG1 heavy chain constant region before the upper hinge (CH1); upper hinge of the variant; human IgG1 heavy chain constant region after the upper hinge (core hinge from C226, CH2, CH3); as the light chain of m6 (PDB 6VVU, Fab light chain); IgG1 with a shortened upper hinge; source: …
B8: E104.v2 IgG1 hinge variant G1-KTH (antibody, V domains shown)
VH: B1 VH
VL: B1 VL
notes: as for B7
B9: E104.v2 IgG1 hinge variant G1.G5 (antibody, V domains shown)
VH: B1 VH
VL: B1 VL
notes: variable domain of the heavy chain as in m6 (PDB 6VVU, Fab heavy chain) with V71R and F78V (Kabat numbering); human IgG1 heavy chain constant region before the upper hinge (CH1); upper hinge of the variant; human IgG1 heavy chain constant region after the upper hinge (core hinge from C226, CH2, CH3); as the light chain of m6 (PDB 6VVU, Fab light chain); IgG1 with five glycines in the upper hinge; …
B10: E104.v2 IgG1 hinge variant G1.P5 (antibody, V domains shown)
VH: B1 VH
VL: B1 VL
notes: variable domain of the heavy chain as in m6 (PDB 6VVU, Fab heavy chain) with V71R and F78V (Kabat numbering); human IgG1 heavy chain constant region before the upper hinge (CH1); upper hinge of the variant; human IgG1 heavy chain constant region after the upper hinge (core hinge from C226, CH2, CH3); as the light chain of m6 (PDB 6VVU, Fab light chain); IgG1 with five prolines in the upper hinge; …
B11: E104.v2 IgG1 hinge variant G1.CC (antibody, V domains shown)
VH: B1 VH
VL: B1 VL
notes: variable domain of the heavy chain as in m6 (PDB 6VVU, Fab heavy chain) with V71R and F78V (Kabat numbering); human IgG1 heavy chain constant region before the upper hinge (CH1); upper hinge of the variant; human IgG1 heavy chain constant region after the upper hinge (core hinge from C226, CH2, CH3); as the light chain of m6 (PDB 6VVU, Fab light chain); IgG1 with two added cysteines in the upper …
B12: wild-type (WT) tetrameric human βI-tryptase (enzyme)
chain: not shown
notes: mature human βI-tryptase, Ile31-Pro275 of Uniprot Q15661 (Ile16-Pro246 in chymotrypsinogen numbering); N-terminus IVGG after enterokinase cleavage; Homotetramer; residues in the results are in chymotrypsinogen numbering; also called βI-tryptase tetramer; tetrameric β-tryptase; source: Trichoplusia ni cells (baculovirus), secreted, purified (Ni-NTA, S200 SEC); zymogen cleaved with enterokinase in …
B13: humanized E104.v2 IgG1 (antibody, V domains shown)
VH: B1 VH
VL: B1 VL
notes: variable domain of the heavy chain as in m6 (PDB 6VVU, Fab heavy chain) with V71R and F78V (Kabat numbering); human IgG1 heavy chain constant region; as the light chain of m6 (PDB 6VVU, Fab light chain); IgG1; also called IgG1.v2; WT IgG1 hinge; source: 293 cells, transient transfection, purified (MabSelect SuRe, SEC); copies: 2 + 2
B14: E104.v2 Fab (Fab, V domains shown)
VH: B1 VH
VL: B1 VL
notes: as the heavy chain of m6 (PDB 6VVU, Fab heavy chain) with the two framework changes V71R and F78V (Kabat numbering); as the light chain of m6 (PDB 6VVU, Fab light chain); No structure of v2 was obtained; it differs from v1 only at heavy chain framework positions 71 and 78; also called Fab E104.v2; source: E. coli, purified (Protein G, SP Sepharose, S75 SEC)
B15: E104.v2 IgG2 (antibody, V domains shown)
VH: B1 VH
VL: B1 VL
notes: variable domain of the heavy chain as in m6 (PDB 6VVU, Fab heavy chain) with V71R and F78V (Kabat numbering); human IgG2 heavy chain constant region; upper hinge printed as ERKCCVE; as the light chain of m6 (PDB 6VVU, Fab light chain); IgG2 isotype version of E104.v2; source: 293 cells, transient transfection, purified (MabSelect SuRe, SEC); copies: 2 + 2
B16: humanized E104.v2 IgG4 (antibody, V domains shown)
VH: B1 VH
VL: B1 VL
notes: variable domain of the heavy chain as in m6 (PDB 6VVU, Fab heavy chain) with V71R and F78V (Kabat numbering); human IgG4 heavy chain constant region; upper hinge printed as ESKYGPP; as the light chain of m6 (PDB 6VVU, Fab light chain); IgG4 isotype version of E104.v2; source: 293 cells, transient transfection, purified (MabSelect SuRe, SEC); copies: 2 + 2

What was measured:
[1] = biological target: T1, human βI-tryptase monomer (Homo sapiens, UniProt Q15661); experiment: SPR; Biacore T200; anti-tryptase IgG variant captured on a CM5 chip with anti-human IgG (Fc) antibody; threefold dilutions of human βI-tryptase monomer injected at 30 µL/min, 25 °C, 3-min association, 10-min dissociation; 1:1 binding model; representative single sensorgram sets; conditions: both partners purified
T1 construct: mature wild-type human βI-tryptase, Uniprot Q15661, Ile31-Pro275 (Ile16-Pro246 chymotrypsinogen numbering); also called monomeric βI-tryptase; β1-tryptase; source: Trichoplusia ni cells (baculovirus), secreted, purified (Ni-NTA, S200 SEC)
T1 sequence (Q15661 31-275): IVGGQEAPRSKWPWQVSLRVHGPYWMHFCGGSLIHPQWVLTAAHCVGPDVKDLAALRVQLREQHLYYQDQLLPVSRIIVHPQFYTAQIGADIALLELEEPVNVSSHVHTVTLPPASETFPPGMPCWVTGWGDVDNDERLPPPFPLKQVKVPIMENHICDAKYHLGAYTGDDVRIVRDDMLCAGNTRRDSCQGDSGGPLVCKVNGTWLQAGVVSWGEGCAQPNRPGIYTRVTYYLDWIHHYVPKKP

[2] = biological target: T2, human βI-tryptase monomer (Homo sapiens, UniProt Q15661); experiment: SPR; Biacore T200; E104 IgG variants captured on immobilised mouse anti-human IgG (Fc) antibody on CM5 chips; threefold dilutions of human βI-tryptase monomer injected at 30 µL/min, 25 °C; 1:1 Langmuir model; n = 2; conditions: both partners purified
T2 construct: mature human βI-tryptase, Ile31-Pro275 of Uniprot Q15661 (Ile16-Pro246 in chymotrypsinogen numbering); The monomer used in SPR and HDX-MS; also called monomeric βI-tryptase; monomeric β-tryptase
T2 sequence (Q15661 31-275): as above

[3] = biological target: the molecule itself; experiment: crystal structure; E104.v1 Fab with tetrameric βI-tryptase; crystals at 19 °C, 0.1 M Tris pH 8.5, 0.2 M CaCl2, 20% PEG 4000, 4% pentaerythritol ethoxylate; 3.0 Å
[4] = biological target: T3, βI-tryptase tetramer mutant I99C (human, engineered disulfide bond in the large interface (C99)); experiment: SEC; without heparin; tetrameric βI-tryptase (WT, Y75C or I99C) or zymogen monomer mixed with a twofold molar excess of Fab, 15 min at 25 °C; S200GL column in 10 mM MOPS pH 6.8, 2 M NaCl; fractions checked by SDS-PAGE; conditions: both partners purified
T3 construct: mature human βI-tryptase, Ile31-Pro275 of Uniprot Q15661 (Ile16-Pro246 in chymotrypsinogen numbering); numbers count on: chymotrypsinogen numbering; Loaded as a tetramer; with E104.v2 Fab it runs as a complex of the disulfide-linked dimer; also called disulfide-locked large interface mutant; not shown: His6, N-terminal, cleaved
T3 sequence (chain, as listed by the source I99C I99C): as the sequence (Q15661 31-275) above, with I88C counted along it

Binder	Kd [1] [pM]	Kd [2] [pM]	other results
B1	560	–	–
B2	522	–	–
B3	643	–	–
B4	543	–	–
B5	680	–	–
B6	–	500 ± 20	–
B7	–	500 ± 70	–
B8	–	500 ± 90	–
B9	–	600 ± 100	–
B10	–	400 ± 100	–
B11	–	400 ± 30	–
B12	–	–	stoichiometry N [3]: 4
B13	–	600 ± 10	–
B14	–	–	stoichiometry N [4]: 2 Fab per disulfide-linked dimer
B15	–	600 ± 100	–
B16	–	700 ± 40	–
